Results from patent publication US20190241623A1 (EVAXION BIOTECH A S, published 2019).

Tests used:
[1] = molecular target: T1, MHC Class II molecule DRB1*01:01 (UniProt P01903 26-216; P01911 30-227); test: peptide:MHC II complex stability assay (Immunitrack)
T1 construct: Assay done by Immunitrack; the construct of the MHC II molecule is not described

[2] = molecular target: T2, MHC Class II molecule DRB1*04:01 (UniProt P01903 26-216; P01911 30-227); test: as above
T2 construct: Assay done by Immunitrack; the construct of the MHC II molecule is not described

Row | Binder | binding result [1] | binding result [2]
1 | EPINFILKSSTKLKA (15-mer peptide selected in silico from the S. aureus proteomes) [SEQ ID NO 21] | binds | binds
2 | IIKKLFRLPAIKRFE (15-mer peptide selected in silico from the S. aureus proteomes) [SEQ ID NO 24] | binds | binds
3 | ILLGYFVAQRALVKA (15-mer peptide selected in silico from the S. aureus proteomes) [SEQ ID NO 25] | binds | binds
4 | KADALKAITALKLQM (15-mer peptide selected in silico from the S. aureus proteomes) [SEQ ID NO 26] | binds | binds
5 | KHQIRMLSIPRDTIS (15-mer peptide selected in silico from the S. aureus proteomes) [SEQ ID NO 27] | binds | binds
6 | KRIFKMSPIHHHFEL (15-mer peptide selected in silico from the S. aureus proteomes) [SEQ ID NO 28] | binds | binds
7 | KTLFVALNNKARIPE (15-mer peptide selected in silico from the S. aureus proteomes) [SEQ ID NO 29] | binds | binds
8 | LDQIIAQANLRLATM (15-mer peptide selected in silico from the S. aureus proteomes) [SEQ ID NO 30] | binds | binds
9 | LMGIRAFRKLLPNIP (15-mer peptide selected in silico from the S. aureus proteomes) [SEQ ID NO 31] | binds | binds
10 | MHFIAISINHRTADV (15-mer peptide selected in silico from the S. aureus proteomes) [SEQ ID NO 32] | binds | binds
11 | QRHFQIGYNRAARII (15-mer peptide selected in silico from the S. aureus proteomes) [SEQ ID NO 33] | binds | binds
12 | FLKLFRITNPIARGL (15-mer peptide selected in silico from the S. aureus proteomes) [SEQ ID NO 22] | binds | binds
13 | SSNVYMFKTALKLAG (15-mer peptide selected in silico from the S. aureus proteomes) [SEQ ID NO 34] | binds | binds
14 | STFIYKIANERLFSR (15-mer peptide selected in silico from the S. aureus proteomes) [SEQ ID NO 35] | binds | binds
15 | SVTIIKSLQAIRVPF (15-mer peptide selected in silico from the S. aureus proteomes) [SEQ ID NO 36] | binds | binds
16 | TSQFHVLRALRLAQK (15-mer peptide selected in silico from the S. aureus proteomes) [SEQ ID NO 37] | binds | binds
17 | VLFYLRSNKRQIIEK (15-mer peptide selected in silico from the S. aureus proteomes) [SEQ ID NO 38] | binds | binds
18 | WKRIGRLKSIPIFMY (15-mer peptide selected in silico from the S. aureus proteomes) [SEQ ID NO 39] | binds | binds
19 | YFRFQYFNPLKSERY (15-mer peptide selected in silico from the S. aureus proteomes) [SEQ ID NO 40] | binds | binds
20 | GLYFVAMNNLKAAGQ (15-mer peptide selected in silico from the S. aureus proteomes) [SEQ ID NO 23] | binds | binds
